Experimental data from US20220153832A1 (PIONYR IMMUNOTHERAPEUTICS, published 2022).
Positions count from the first letter of the chain named. Each block holds one binder with its values, some of them ahead of it.

Legend:
[1] = target: T1, Human Macrophage Receptor with Collagenous Structure (MARCO), full length, on cells (human, UniProt Q9UEW3 1-520); assay: flow cytometry, 293T HuMARCO cells
T1 construct: the cell type is named under assay; also called huMARCO; HuMARCO
T1 sequence: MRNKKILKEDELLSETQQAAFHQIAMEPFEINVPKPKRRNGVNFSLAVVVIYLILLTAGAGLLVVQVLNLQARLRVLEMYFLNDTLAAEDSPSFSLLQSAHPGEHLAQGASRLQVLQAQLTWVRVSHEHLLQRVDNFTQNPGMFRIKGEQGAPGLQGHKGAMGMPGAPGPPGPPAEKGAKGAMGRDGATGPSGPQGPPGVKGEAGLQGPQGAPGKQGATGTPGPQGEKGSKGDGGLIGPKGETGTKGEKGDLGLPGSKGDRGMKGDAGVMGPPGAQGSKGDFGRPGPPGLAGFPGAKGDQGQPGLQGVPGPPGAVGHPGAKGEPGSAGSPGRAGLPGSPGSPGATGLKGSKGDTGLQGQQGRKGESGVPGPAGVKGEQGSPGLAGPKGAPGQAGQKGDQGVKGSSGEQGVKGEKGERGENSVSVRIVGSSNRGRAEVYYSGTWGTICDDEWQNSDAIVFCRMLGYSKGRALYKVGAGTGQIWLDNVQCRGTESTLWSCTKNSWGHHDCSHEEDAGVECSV
Outline: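 HEK293T cells expressing human or cynomolgus MARCO were tested for antibody binding by flow cytometry. At 100,000 cells/well, Zombie NIR-stained cells received an 8-point three-fold dilution of antibody from 100 nM in D-PBS/2% FBS/2 mM EDTA for 1 hr on ice, then APC goat anti-mouse IgG for 30 min on ice. Geometric mean fluorescence intensities were analysed in FlowJo and Prism.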

[2] = target: T2, Cynomolgus MARCO, full length, on cells (cynomolgus, UniProt A0A2K5X0Z2 1-519); assay: flow cytometry, cells overexpressing cyno MARCO
T2 construct: whole, on cells; also called cyno MARCO; CyMARCO
T2 sequence: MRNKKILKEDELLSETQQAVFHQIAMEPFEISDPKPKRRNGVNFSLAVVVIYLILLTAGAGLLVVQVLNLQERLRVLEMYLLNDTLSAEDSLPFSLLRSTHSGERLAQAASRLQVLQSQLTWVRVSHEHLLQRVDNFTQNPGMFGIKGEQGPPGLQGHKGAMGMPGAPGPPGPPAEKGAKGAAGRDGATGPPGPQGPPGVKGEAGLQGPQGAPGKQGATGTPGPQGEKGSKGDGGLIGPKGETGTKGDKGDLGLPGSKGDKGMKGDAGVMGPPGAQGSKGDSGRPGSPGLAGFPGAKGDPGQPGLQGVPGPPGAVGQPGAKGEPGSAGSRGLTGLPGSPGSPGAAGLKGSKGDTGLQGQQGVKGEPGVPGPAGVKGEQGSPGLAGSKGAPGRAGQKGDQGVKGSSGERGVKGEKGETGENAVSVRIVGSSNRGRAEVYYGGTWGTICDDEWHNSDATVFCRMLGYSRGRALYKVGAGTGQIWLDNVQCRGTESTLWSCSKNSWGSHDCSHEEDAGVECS

[3] = target: T3, human MARCO (R&D biosystems), recombinant, coated in the LDL competition assay (human, UniProt Q9UEW3 70-520, limits assumed); assay: LDL competition on coated human MARCO (MSD), competitor biotinylated hLDL
T3 construct: Bought protein
T3 sequence (looked up): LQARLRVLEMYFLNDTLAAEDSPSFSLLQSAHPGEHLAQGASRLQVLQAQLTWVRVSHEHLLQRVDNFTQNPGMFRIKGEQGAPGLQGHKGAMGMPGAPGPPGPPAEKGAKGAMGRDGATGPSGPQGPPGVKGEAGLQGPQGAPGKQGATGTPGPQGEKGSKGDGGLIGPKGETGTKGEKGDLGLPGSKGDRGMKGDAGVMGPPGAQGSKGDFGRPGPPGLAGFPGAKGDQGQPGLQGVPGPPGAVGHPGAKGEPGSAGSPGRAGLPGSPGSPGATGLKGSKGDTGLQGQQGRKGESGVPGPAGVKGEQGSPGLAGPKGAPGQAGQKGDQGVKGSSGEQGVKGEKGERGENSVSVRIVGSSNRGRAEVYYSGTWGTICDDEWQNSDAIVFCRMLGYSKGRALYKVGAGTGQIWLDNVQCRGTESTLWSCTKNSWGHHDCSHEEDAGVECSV
Description: A high-binding, 96-well MSD plate was coated with 4 μg/ml mouse MARCO or 4 μg/ml human MARCO (R&D biosystems). After the plate was blocked with PBST and 5% BSA for an hour, titrated anti-mouse or anti-human MARCO antibodies were added to the plate and incubated for 30 minutes. Biotinylated hLDL (860 pM or 2 μg/ml) were added to the antibody, and the antibody/LDL mixture was incubated for an hour to allow the mixture to reach binding equilibrium. The plates were washed and bound biotinylated LDL was detected with Sulfo-tagged streptavidin that generates an electrocheminlumenscent signal when read buffer is added and electricity is applied to the electrodes in the MSD plate. IC50's were calculated using a 4-parameter curve fit in GraphPad Prism software.
The newly generated rat hybridoma anti-human MARCO antibodies were characterized as previously described. Neither antibody bound to MSR1. Binding kinetics were determined via Multi Cycle Kinetics analysis using the huMARCO antigen as previously described.

[4] = target: T4, N-terminally polyhistidine tagged human MARCO ECD (147-520), recombinant (human, UniProt Q9UEW3 147-520); assay: ELISA on recombinant human MARCO, 0 mM EDTA
T4 construct: also called PI-RG-3000; recombinant human MARCO; not shown: N-terminal polyhistidine tag
T4 sequence: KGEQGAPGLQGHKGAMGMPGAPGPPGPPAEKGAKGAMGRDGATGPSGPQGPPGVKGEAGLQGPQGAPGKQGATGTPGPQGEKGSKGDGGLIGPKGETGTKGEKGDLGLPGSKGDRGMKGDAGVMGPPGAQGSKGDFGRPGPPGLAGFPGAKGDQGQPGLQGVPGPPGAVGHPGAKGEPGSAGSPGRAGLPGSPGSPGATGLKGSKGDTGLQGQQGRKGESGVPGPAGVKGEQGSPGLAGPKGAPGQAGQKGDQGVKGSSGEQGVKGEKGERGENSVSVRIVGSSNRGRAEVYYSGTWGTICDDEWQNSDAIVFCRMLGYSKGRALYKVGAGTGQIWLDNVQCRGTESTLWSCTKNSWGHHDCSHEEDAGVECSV
Description: After the plates were incubated at room temperature for 1 hour or 4° C. overnight, the plates were wash 3 times with ELISA wash buffer (PBS/0.05% TWEEN-20), then hybridoma supernatant (1:5 dilution) or purified antibody (1 ug) was diluted in DPBS/Ca2+/2% FBS, DPBS without Ca2+/2 mM EDTA/2% FBS, DPBS without Ca2+/10 mM EDTA/2% FBS, and DPBS without Ca2+/50 mM EDTA/2% FBS. Plates again were incubated at room temperature for 1 hour.

B3: PI-3010-AB (antibody, human IgG1, kappa)
heavy: not shown
light: DIQMTQSPASLSTSLGETVSIECLASEGISNDLAWYQQKSGKSPQLLIYAASRLQDGVPSRFSGSGSGTRYSLKISGMQPEDEADYFCQQSYKYPLTFGSGTKLEIKRTVAAPSVFIFPPSDEQLKSGTASVVCLLNNFYPREAKVQWKVDNALQSGNSQESVTEQDSKDSTYSLSSTLTLSKADYEKHKVYACEVTHQGLSSPVTKSFNRGEC
EC50 [2]: 1.48 nM

B5: PI-3015-AB (antibody, human IgG1, kappa)
heavy: not shown
light: DIQMTQSPSSLSASVGDRVTITCRASEGISNDLAWYQQKPGKAPKLLIYAASRLQSGVPSRFSGSGSGTDYTLTISSMQPEDFATYYCQQSYKYPLTFGQGTKLEIKRTVAAPSVFIFPPSDEQLKSGTASVVCLLNNFYPREAKVQWKVDNALQSGNSQESVTEQDSKDSTYSLSSTLTLSKADYEKHKVYACEVTHQGLSSPVTKSFNRGEC
EC50 [2]: 1.73 nM

B6: PI-HX-3031 (antibody)
heavy: QVQLKESGPGLVQPSQTLSLTCTVSGFSLTSYHVSWVRQPPGKGLEWMGAIWTGGSIAYNSLLKSRLSISRDTSKSQVFLKMNSLQTEDTATYYCARDLSDYYSSYTSFDYWGQGVMVTVSTAETTAPSVYPLAPGTALKSNSMVTLGCLVKGYFPEPVTVTWNSGALSSGVHTFPAVLQSGLYTLTSSVTVPSSTWSSQAVTCNVAHPASSTKVDKKIVPRECNPCGCTGSEVSSVFIFPPKTKDVLTITLTPKVTCVVVDISQNDPEVRFSWFIDDVEVHTAQTHAPEKQSNSTLRSVSELPIVHRDWLNGKTFKCKVNSGAFPAPIEKSISKPEGTPRGPQVYTMAPPKEEMTQSQVSITCMVKGFYPPDIYTEWKMNGQPQENYKNTPPTMDTDGSYFLYSKLNVKKETWQQGNTFTCSVLHEGLHNHHTEKSLSHSP
light: DIQMTQSPASLSTSLGETVSIECLASEGISNDLAWYQQKSGKSPQLLIYAASRLQDGVPSRFSGSGSGTRYSLKISGMQPEDEADYFCQQSYKYPLTFGSGTKLEIKRADAAPTVSIFPPSTEQLATGGASVVCLMNNFYPRDISVKWKIDGTERRDGVLDSVTDQDSKDSTYSMSSTLSLTKADYESHNLYTCEVVHKTSSSPVVKSFNRNEC
notes: Parental rat hybridoma, rat IgG2a
EC50 [3]: 6.2 nM | ELISA signal (A450) [4]: 1.37

B7: PI-HX-3043 (antibody, rat IgG2a)
heavy: QVNLLQSRAALVKPGASVKLSCKASGYTFTDYYLHWVKQSHAKSLEWIGYINPNNAYTSYNEKFKSKATLTVDKSTNTAYMELSRLTSADSATYYCARDTTDYYNLHFAYWGQGTLVTVSSAETTAPSVYPLAPGTALKSNSMVTLGCLVKGYFPEPVTVTWNSGALSSGVHTFPAVLQSGLYTLTSSVTVPSSTWSSQAVTCNVAHPASSTKVDKKIVPRECNPCGCTGSEVSSVFIFPPKTKDVLTITLTPKVTCVVVDISQNDPEVRFSWFIDDVEVHTAQTHAPEKQSNSTLRSVSELPIVHRDWLNGKTFKCKVNSGAFPAPIEKSISKPEGTPRGPQVYTMAPPKEEMTQSQVSITCMVKGFYPPDIYTEWKMNGQPQENYKNTPPTMDTDGSYFLYSKLNVKKETWQQGNTFTCSVLHEGLHNHHTEKSLSHSP
light: B6 light with T13A, A25T, A50D, Q55E, P80T
notes: as for B6
ELISA signal (A450) [4]: 1.2

Other lines, results leading:

binding result [1]: no binding
B1: PI-HX-3021 (antibody, V domains shown)
VH: QVRLVQSGTALVRPGASVRMSCTASGYSFTDYWVSWVKQSHGQSLEWIGEIYPNSGTTNFNEKFEGKATLTVDKSTSTAYMELSRLTSEDSAIYYCTGEGTFDYWGQGVMVTVSS
VL: EIVLTQSPTTMAASPGEKVTITCRPSSSLSNMHWFQQKSGTSPKPWIYDTSKLASGVPDRFSGSGSGTSYSLTISSMEAEDAATYYCLQRSSYPPTFGAGTKLELK
notes: Rat IgG2a hybridoma antibody; Not the effector dead PI-3021; also called PI-3007 (name of the recombinant form)

binding result [1]: no binding
B2: PI-HX-3016 (antibody, rat IgG1, V domains shown)
VH: EVQLVESGGGLVKPGASLKLSCVASGFTFSDDWMNWVRQTPGKAMEWIGDIKYDGSYTNYVPSLKNRLTISRDNAKNTLYLQMTNVRSEDTATYYCTSGGVFDYWGQGVMVTVSS
VL: B1 VL with T5S, P25A, L29V, N31Y, S92G, L105V
notes: Rat IgG1 hybridoma antibody

EC50 [3]: 8.2 nM
B4: PI-HX-3061 (antibody, rat IgG2a)
heavy: EVQLVESGGGLVQPGSSLKLSCVASKFTFSNYGMNWIRQAPKKGLEWIALIYYNSNNKYYADSVKGRFTISRDNSKNTLYLEMNSLRSEDTAMYYCAKSLTGGSDYFDSWGQGVMVTVSSAETTAPSVYPLAPGTALKSNSMVTLGCLVKGYFPEPVTVTWNSGALSSGVHTFPAVLQSGLYTLTSSVTVPSSTWPSQTVTCNVAHPASSTKVDKKIVPRNCGGDCKPCICTGSEVSSVFIFPPKPKDVLTITLTPKVTCVVVDISQDDPEVHFSWFVDDVEVHTAQTRPPEEQFNSTFRSVSELPILHQDWLNGRTFRCKVTSAAFPSPIEKTISKPEGRTQVPHVYTMSPTKEEMTQNEVSITCMVKGFYPPDIYVEWQMNGQPQENYKNTPPTMDTDGSYFLYSKLNVKKEKWQQGNTFTCSVLHEGLHNHHTEKSLSHSP
light: DVQMTQSPSYLAASPGESVSISCKASKSIGTFLAWYQEKPEKTNKLLIYSGSTLQSGTPSRFSGSGSGTDFTLTIRNLEPEDFAVYYCQQHDEYPFTFGSGTKLEIKRADAAPTVSIFPPSTEQLATGGASVVCLMNNFYPRDISVKWKIDGTERRDGVLDSVTDQDSKDSTYSMSSTLSLTKADYESHNLYTCEVVHKTSSSPVVKSFNRNEC
notes: Parental rat hybridoma, rat IgG2a; cross reactive with human and mouse MARCO
